Measured values as given in the supplement of paper PMC12764529.
± gives the half width of the 95% confidence interval.

Assays:
[1] = folding stability dG unfold (combined trypsin and chymotrypsin); higher = more stable
Procedure, shortened: (§1)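 Digests were run with trypsin and chymotrypsin at 11 concentrations in threefold dilutions, plus a no-protease condition, on designed mini-proteins in a PA-tagged cDNA display construct. The mini-proteins were under 80 residues, had no cysteine, and were kept only when AlphaFold2 dimer inter-PAE was above 15. After sequencing, Bayesian fitting of the counts gave K50, from which unfolding free energy was derived against a sequence-predicted unfolded-state K50 and a shared folded-state K50, per protease or combined.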

[2] = folding stability dG unfold from chymotrypsin proteolysis; higher = more stable
Procedure, shortened: as §1

[3] = folding stability dG unfold from trypsin proteolysis; higher = more stable
Procedure, shortened: as §1

Row | Sequence | folding stability dG unfold [1] [kcal/mol] | folding stability dG unfold [2] [kcal/mol] | folding stability dG unfold [3] [kcal/mol]
1 | SAGKIEFPMPNGYWFRIEIDPENNKVKVEYSPHNGQYKVKIPGKEEVQIPIKGMPFEEMAKEIIEKLLKSAG [r5_447_TrROS] | 0.962 ± 0.4 | 1.13 ± 0.19 | 0.776 ± 0.17
2 | SAGKIIKFKTKANENASITVPEENKILKIKVYKPNGTLLDEYEVEVKPNKTLVLNIPDDNLYVVVEPIPSAG [r5_797_TrMRF] | 0.975 ± 0.057 | 1.17 ± 0.1 | 0.56 ± 0.025
3 | SAGKIKIDVMPPGWFLRIKIEHGGKEQERMIPIPGDSVDEIVKEALDEIQQHFPNKPIKVDIEIYPVDDSAG [r5_180_TrROS] | 0.874 ± 0.37 | 1.29 ± 0.37 | 1.03 ± 0.2
4 | SAGKIKIPPGQEIWIIVNVEWQPDPDNGEPRYTVTVMKIKIKADPNGGLKIESIETKIVPAEDLKDNGLSAG [r5_340_TrROS] | 3.06 ± 0.14 | 3.6 ± 0.078 | 1.84 ± 0.036
5 | SAGKIPPGEEQKKKIKLGGKEIKIKMWTYKNPDGQPHMMFRVEYDGEPGIFNPDSGRPMTPDDIKKMLKSAG [r5_138_TrROS] | 0.788 ± 0.26 | 1.24 ± 0.35 | 0.0292 ± 0.19
6 | SAGKITINVMMNPDGNYYVKIRIGGDGEPIMEFPVDSPEDAEEKAKAFADNLAKKYPNYKIEVDYMPFDSAG [r5_383_TrROS] | 3.64 ± 0.12 | 3.06 ± 0.066 | 4.23 ± 0.32
7 | SAGKIVIDKDNMKVYVTLPNGKKIELSLEELKKLLEELKKEGKPLTAEEIAEKLKKEFPGAEVEIVPVSAGG [r19_46_TrROS_Hall] | 3.69 ± 0.083 | 4.01 ± 0.064 | 2.38 ± 0.086
8 | SAGKKIEIDMSLEELKKLPGIKKVEVKNGKVYLEVDGKKIEITIRPPKPVLEFKEGMSEEEKKELLKKLSAG [r5_2_TrROS_Hall] | 1.22 ± 0.21 | 1.11 ± 0.1 | 0.911 ± 0.093
9 | SAGKKIHITLTEDELREIAEALGLEPEDMTAEELAARLREEFPDVEVTIEKPPVEEREREERELAEEEKSAG [r5_264_TrROS_Hall] | 1.3 ± 0.14 | 0.984 ± 0.068 | 1.76 ± 0.064
10 | SAGKKIKIVKVEVTYDPETKEVTVKITIYNENGEKIKEIELTYEPGMSEEEVREKAEALVRKLIEEGKLSAG [r5_238_TrROS_Hall] | 2.54 ± 0.1 | 2.24 ± 0.05 | 2.75 ± 0.15
11 | SAGKKKEEEKKKKEEKKKKEYYLVKVKIKNPNGEEKEIVLKAKSLEEAKKALEKLGLKVEIVEIKPIKVSAG [r5_233_TrROS_Hall] | 2.71 ± 0.17 | 3.03 ± 0.11 | 1.7 ± 0.11
12 | SAGKKKIKIEIVKVEKNENGETIIRVKVKLEDGSEKEITINLDDLKNGNLKNMTAEEIAKLFPNIEIESAGG [r19_74_TrROS_Hall] | 1.88 ± 0.18 | 1.58 ± 0.084 | 2.35 ± 0.062
13 | SAGKKKKEVKKITLVIEFPEEMTEEELKERAEKLAEELKKKFPKIKKIEVKVEKKDGKLIVTVEIEIEKSAG [r5_446_TrROS_Hall] | 1.88 ± 0.15 | 1.78 ± 0.079 | 2.02 ± 0.064
14 | SAGKKKKIKVKIEIRVKKKYKTKDGKEVEEKEETITVEIEMTLEELKEAIKKLPENVEITKITKIEKESAGG [r19_114_TrROS_Hall] | 2.26 ± 0.16 | 2.42 ± 0.058 | 1.58 ± 0.11
15 | SAGKKKKKPKVKEVIIVVKVENMTAEEIAKKLAEELNVEVTKVEVKDGYVTITLKDGSKIKIEVIPEEKSAG [r5_350_TrROS_Hall] | 1.58 ± 0.15 | 1.76 ± 0.069 | 1.35 ± 0.11
16 | SAGKKKTLTLTLGNVTITITYDEDTGTLRIKVTATVTTVTLDKDTKELTTEKKTVTTEIEIPLAPGATLSAG [r5_195_TrROS_Hall] | 2.67 ± 0.2 | 2.79 ± 0.086 | 2.76 ± 0.18
17 | SAGKKLIEAAKNNKKAVIPVKYKKYKITEKYKTKDGGTKYKAKLIEEKTYNVKLIKVDPKTGKIIIDPKSAG [r5_5_TrMRF] | 1.75 ± 0.92 | 1.82 ± 0.28 | 1.07 ± 0.13
18 | SAGKKLKITDPEYKYYPNEGMYWVTIPIRFPDGKPIFDIDYPMPPGQSWDQVREQAKDIARWLIEEGLISAG [r5_238_TrROS] | 1.52 ± 0.095 | 1.93 ± 0.13 | 0.639 ± 0.059
